Experimental data reported in the nanobody polyreactivity screen of Harvey et al. (2022).

Experiment: yeast display, Sf9 membrane polyspecificity reagent, FACS + sequencing; frameworks hold sequencing errors
In short: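 In a synthetic yeast display library (Saccharomyces cerevisiae BJ5465), nanobody expression was induced with galactose for 36–48 hours. FACS gates were set low and high (top ~1%) using anti-HA fluorescence for expression and streptavidin fluorescence for binding of the Sf9 membrane reagent. Each polyreactivity label is drawn from the gate of origin.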
For “QVQLVESGGGLVQAGGSLRLSCAASGSIFPSYARGWYRQAPGKERELVAAINWDGGSTFYADSVKGRFTISRDNAKNTVSLQMNSLKPEDTAVYYCAAPDNYGGVGGITFWRMDYWGQGTQVTVSS”, the “polyreactivity (PSR sort gate)” value was “low polyreactivity”.
In the case of “QVQLVESGGGIVQAGGSLRLSCAASGITFAFYDMGWYRQAPGTERELVAAISYSGGGTYYADSVKGRFTISRDNAKNTVYLQMNSLKPEDTAVYYCAADPKTHPLFGEDYWGQGTQVTVSS”, the “polyreactivity (PSR sort gate)” value is reported as “low polyreactivity”.
In the case of “QVQLVESGGGLVQAGGSLRLSCAASGSIFPSYAMGWFRQAPRKERELVAAISRSAGSTYYADSVKGRFTISRDNAKNTVYLQMNSLKPEDTAVYYCAADGYSSRYRFDYWGQGTQVTVSS”, the “polyreactivity (PSR sort gate)” value is reported as “low polyreactivity”.
For “QVQLVESGGGLVQAGGSLRLSCAASGFIGWYRQAPGKERELVAAISWRGGRTYYADSVKGRFTISRDNAKNTVYLQMNSLKPEDTAVYYCNAVGNVWGYDSWGQGTQVTVSS”, the “polyreactivity (PSR sort gate)” value was “high polyreactivity”.
With “QVQLVESGGGLVQAGGSLRLSCAASGSIFSKNTMGWYRQAPGKEREFVARISVRGGSTYYADSVKGRFTISRDNAKNTVYLQMNSLKPEDTAVYYCNAAHTVTQNSRNSDYWGQGTQVTVSS” the “polyreactivity (PSR sort gate)” value was “high polyreactivity”.
In the case of “QVQHVESGGGLVQAGGSLRLSCAASGRIFGVYVMGWYRQAPGKERELVAAITGGGSTYYADSVKGRFTISRDNAKNTVYLQMNSLKPEDTAVYYCAARYLVTYGHQQRYYYWGQGTQVTVSS”, the “polyreactivity (PSR sort gate)” value is reported as “high polyreactivity”.
For “QVQLVESGRGLVQAGGSLRLSCAASGFTFRNYAMGWYRQAPGKERELVAAITRRGGSTYYADSVKGRFTISRDNAKNTVYLQMNSLKTEDTAVYYCNADREVPWGKDNLDYWGQGTQVTVSS”, the “polyreactivity (PSR sort gate)” value was “high polyreactivity”.
For “QVQLHESGGGLVQAGGSLRLSCAASGTISYAGPMGWYRQAPGKEREFVAGIGVGSNTNYADSVKGRYTIIRDNAKNTVYLQMNSLKPEDTAVDYCAVGGYAPLGRPYWGQGTQVTVSS”, the “polyreactivity (PSR sort gate)” value was “low polyreactivity”.
In the case of “QVQLVESGGGLVQAGGSLRLSCAASGLTFHVNAMGWYRQAPGKERELVAGITFSGGSTYYADSVKGRFTISRDNAKNTVYLLMNSLTPEDTAVYYCAADARFYAYYYWGQGTQVSVSS”, the “polyreactivity (PSR sort gate)” value is reported as “low polyreactivity”.
For “QVQLVESGGGLVQAGGSLRLSCAASGSTFYKNSMGWYRQAPGKERELVATISASSTSTYYADSVKGRFTISRDNAKNTVYLQMNSLKPEATAVYYCSKVYVHGSTYGYYWYGYDYWGQGTQVTVSS”, the “polyreactivity (PSR sort gate)” value was “low polyreactivity”.
In the case of “QVQLVESGGGLVQAGGSLRLSCAASGSIFADYAMGWYRQAPGKERELVAAITGSGGRTYYADSVKGRFTISRDNAKNTVYLQMNSLKPEDTAVYYCAAEGTTWYYDMDYWGQGTQVTVSS”, the “polyreactivity (PSR sort gate)” value is reported as “low polyreactivity”.
With “QVQLVESGGGLVQAGGSLLLTCAASGIIFVIYAMGWYRQAPGKERELVAAITSDGSTSYADSVKGRFTISRDNAKNTVYLQMNSLKPEDTAVYYCAKDFFEHSPVSHTYSSSKYDYWGQGTQVTVSS” the “polyreactivity (PSR sort gate)” value was “low polyreactivity”.
With “QVQLVESGGGLVQAGGSLRLSCAASGSTSSLNAMGWYRQAPGKEREFVATISFGGGRTYYADSVKGRFTISRDNAKNTVYLQMNSLKPEDTAVYYCAAVGSRWFSQTWRDYWGQGTQVTVSS” the “polyreactivity (PSR sort gate)” value was “high polyreactivity”.
With “QVQLVESGGGLVQAGGSLRLSCAASGSIFKLYSMGWSRQAPGKERELVATIRWSGGSTYYADSVKGRFTISRDNAKNTVYLQMNSLKPEDTAVYYCAARRVRPNGYTSSPLDYWGQGTQVTVSS” the “polyreactivity (PSR sort gate)” value was “high polyreactivity”.
For “QVQLVESGGGLVQAGGSLRLSCAASGSTFPYYGLGWYRQAPGKERELVAVISRRGTGTYYADSVKGRFTISRDNAKNTVYLQMNSLKPEDTAVYYCATAGYFIYWGQGTQVTVSS”, the “polyreactivity (PSR sort gate)” value was “low polyreactivity”.
For “QVQLVESGGGLVQAGGSLRLSCAASGRTFRKYAMGWYRQAPGKERELVAAISWSGGSTYYANSVKGRFTISRVNAKNTVYLQMNSLKPEDTAVYYCAAVPVDTGSLYWGFTTGYDYWGQGTQVTVSS”, the “polyreactivity (PSR sort gate)” value was “low polyreactivity”.
In the case of “QVQQQESGGGLVQAGGSLRLSCAASGTIFQLTVMGRYRQAPGKERELVASIDYGGNTNYADSVKGRFTISRDNAKNTVYLQMNSLKPEDTAVYYCAASSDSWTTHPYWGQGTQVTVSS”, the “polyreactivity (PSR sort gate)” value is reported as “low polyreactivity”.
With “QVQLVESGGGLVQAGGSLRLSCAASGFTFPGYTMGWSRQAPGKERELVAAISTSGGSTYYADSVKGRFTISRDNAKNTVYLQMNSLKPEDTAVYYCAAAKPRVISQNIIYDYWGQGTQVTVSS” the “polyreactivity (PSR sort gate)” value was “high polyreactivity”.
In the case of “QVQLVESGGGLVQAGGSLRLSCAASGRTIYWNAMVWSRQAPGKERELVAAISNGGTTTYYADSVKGRFTISRDNAKNTVYLQMNSLKPEDTAVYYCAGDIRYFDYDYWGQGTQLTVSS”, the “polyreactivity (PSR sort gate)” value is reported as “high polyreactivity”.
With “QVQLVESGGGLVQAGGRLRLSCAASGSIFYSNAMGWYRQAPGKERELVARITWSGGSTYYADSVKGRFTISRDNAKNTVYLQMNSLKPEDTAVYYCNKVIFRYFTTRPTRTYEYWGQGTQVTVSS” the “polyreactivity (PSR sort gate)” value was “low polyreactivity”.
For “QVQLVESGGGLVQAGGSLRLTCAASGFILSSNAMGWYRQAPGKERELVAAITRSGGSTYYADSVKGRFTISRDNAKNTVYLEMNSLKPEDTAVYYCNRLYYSGSGASLDYWGQGTQVTVSS”, the “polyreactivity (PSR sort gate)” value was “high polyreactivity”.
With “QVQLVESGGGLVQAGGSLRLSCAASGFTFRWYDMGWYRQAPGKERELVAAIDASDGSTYYADSVKGRFTISRDNAKNTVYLQMNSLKPEDTAVYYCAADSYYRYYWGQGTQVTVSS” the “polyreactivity (PSR sort gate)” value was “high polyreactivity”.
With “QVQLVESGGGLVHAGGSLRLSCAASGSTFWYNAMGWYRQAPGKERELVAAITWSGSRTYYSDSVKGRFTISRDNAKNTVYLQMNSLKPEDTAVYYCNRTRSFTRYDVFYGTIPAFDYWGQGTQVTVSS” the “polyreactivity (PSR sort gate)” value was “high polyreactivity”.
With “QVQLVESVGGLVQAGGSLRLSCAASGRTFRWNAMGWYRQAPGKERELVAAISYSGGSTYYADSVKGRFTISRDNAKNTVYLQMNSLKPEDTAVYYCAKAYSWYPIFRGLDSWGQGTQVTVSS” the “polyreactivity (PSR sort gate)” value was “high polyreactivity”.
In the case of “QVQLVESGGGLVQAGGSLRLSCASSGRIFYSYAMGWYRQAPGKERELVAAITVSGGSTFYADSVKGRFTISRDNAKNTVYLQMNSLKPEDTAVYYCAAQSTTIEDGWYVEYNYWGQGTQVTVSS”, the “polyreactivity (PSR sort gate)” value is reported as “high polyreactivity”.
With “HVQLVESGGGLVQAGGSLRLSCAASGRIFGYYAIGWYRQATRKERELVAAITINGRRTYYADSVKGRFTISRDNAKNTVYLQMKSLKPEDTAVYLCTATSRYNRLGYWGQGTQVSVSS” the “polyreactivity (PSR sort gate)” value was “high polyreactivity”.
In the case of “QVQHVESGGGLVQAGGSLRLSCAASGGIFSIYTRGWYRQAPGKERELVAAITSGGNTNYADSVKGRFTISRDNAKNTVYLQMNSLKPEDTAVYYCAKTYTEYSVTRSGARMDYWGQGTQVTVSS”, the “polyreactivity (PSR sort gate)” value is reported as “low polyreactivity”.
With “QVQLVDSGGGLVQAGGSLRLSCDASGLIFFFYAMRWYRQAPGKERELVAAISDEGVSTDYADSVKGRFTISRDNAKNTVYLQMNSLKPEDTAVYYCAAKTERVYPWFSFGYWGQGTQVTVSS” the “polyreactivity (PSR sort gate)” value was “low polyreactivity”.
For “QVQLVESGGGLVQAGGSLRLSCAASGSTFSYYAMGWYRQAPGKEREFVASISWRGGSTYYADSVKGRFTISRDNAKNTVYLQMNRLKPEDTAVYYCAASSRSRWSGYRYDYWGQGTQVTVSS”, the “polyreactivity (PSR sort gate)” value was “high polyreactivity”.
For “QVQLVESGGCLVQAGGRLRLSSAASGGTFTFYAMGWYRQAPGKERELVATINWSGGSTYYADSVKGRFTISRDNAKNTVYLQMNSLKPEDTAVYYCNAAWPYKSVEYWGQGTQVTVSS”, the “polyreactivity (PSR sort gate)” value was “low polyreactivity”.
With “QVQLVESGGGLVQAGGSLRLSCAASGRTFGRNGMGWYRQAPGKERELVAAISIGDSTTYADSVKGRFTISRDNAKNTVYLQMNSLKPEDTAVYYCAAEIERYPVWEYRGKYDYWGQGTQVTVSS” the “polyreactivity (PSR sort gate)” value was “low polyreactivity”.
With “QVQLVESGGGLVQAGGSLRLSCAASGFIFIQYAMGWYRQAPGKERELVAAISRSGGSTSYADSVKGRFTISRDNAKNTVYLQMNSLKPEDTAVYYCNRYYGSSGHGRPNEKYGYWGQGTQVTVSS” the “polyreactivity (PSR sort gate)” value was “low polyreactivity”.
With “QVQLVESGGGLVQAGGSLRLSCAASGFTFDSYAMGWYRQAPGTERELVASISSSGSTNYADSVKGRFTISRDNAKNTVYLQMNSLKPEDTAVYYCAAESRYPFIYEYWGQGTQVTVSS” the “polyreactivity (PSR sort gate)” value was “low polyreactivity”.
In the case of “QVQLVESGGGLVQARGSLRLICAASGRTINGYVMGWYRPAPGKEREFVAVINWSGGNTYYADSVKGRFTISRDNAKNTLYLQMNSLKPEDTAVYDCAARRVRSYAYDYWGQGTEVTVSS”, the “polyreactivity (PSR sort gate)” value is reported as “high polyreactivity”.
With “QVQLVESGGGLVQAGGSLRLSCAASGSTFNVYAMGWYRQAPGKERELVASIRTSGTRTYYADSVKGRFTISRDNAKNTVYLQMNSLKPEDTAVYYCNARYYSNLRRHGGYWGQGTQVTVSS” the “polyreactivity (PSR sort gate)” value was “high polyreactivity”.
In the case of “QVQLVESGGGLVQAGGSLRLSCAASGSIFATNAMGCYRQAPGKERELVAAISRSGASTYYADSVKGRFTISRDNAKHTVYLQMNRLKPEDTAVYYCNKVLYRDAYQSYGFDYWGQGTQVTVSS”, the “polyreactivity (PSR sort gate)” value is reported as “high polyreactivity”.
In the case of “QVQLVESGGGLVQAGGSLRLICAASGSTSQNKAMGWYRPAPGKERELVAAITWSGDSTYYADSVKGRFTISRDNAKNTVYIQMNSLKPEDSAVYYCAAVSRFFSTYLYDYWGEGTQVTVSS”, the “polyreactivity (PSR sort gate)” value is reported as “low polyreactivity”.
In the case of “QVQLVESGGGLVQAGGSLRLSCAASGRIFRYYMGWYRQAPGKERELVAVISSGGRTKYADSVKGRFTISRDNAKNTVYLQMNSLKPEDTAVYYCAARYPREAAYGFDYWGQGTQVTVSS”, the “polyreactivity (PSR sort gate)” value is reported as “high polyreactivity”.
With “QVQLVESGGGLVQAGGSLRLSCAASGYTFWDYTMGWYRQAPGKERELVAAISSSGSSTYYADSVKGRFTISRDNAKNTVYLQMNSLKPEDTAVYYCAAYSRRQWKYDYWGQGTQVTVSS” the “polyreactivity (PSR sort gate)” value was “high polyreactivity”.
With “QVQLVESGRGLVQAGGSLRLISAASGSIFVHNTMGWYSQAPGKDRELVAAITYSGGSTNYADSVKGRFTISRDNAKNTVYLQMNSLKPEDTAVYYCATRAISQFHSLGYYYWGQGTEVTVSS” the “polyreactivity (PSR sort gate)” value was “low polyreactivity”.
With “QVQLVESGGGLVQAGGSLRLSCAASGSIFSAYSMGWYRQAPGKERELVAAISKSGSSTYYADSVKGRFTISRDNANNTVYFQMNSLKPEDTAVYYCAAKRAGPYGITKGMDYWGQGTQVSVSS” the “polyreactivity (PSR sort gate)” value was “high polyreactivity”.
In the case of “QVQLVESGGGLVQAGGSLRLSCAASGRTFYYYAMGWYRQAPGKERELVAVIRFSDGSTYYADSVKGRFTISRDNAKNTVYLQMNSLKPEDTAVYYCAAKGPRRWGSGFDYWGQGTQVTVSS”, the “polyreactivity (PSR sort gate)” value is reported as “low polyreactivity”.
In the case of “QVQLVESGGGLVQAGGSLRLSCAASGFTFPVYTMGWYSQAPGKERELVAAISTAGAGTYYADSVKGRFTISRDNAKNTVYLQMNSLKPEDTAVYYCAAYKRGRPEMDYWGQGTQVTVSS”, the “polyreactivity (PSR sort gate)” value is reported as “high polyreactivity”.
